{"source": "the DeepSol protein solubility set"}
{"assay": "soluble on expression in E. coli; label from the status in PepcDB or PDB records"}
{"sequence": "MGSDKIHHHHHHMINDHQYVADLHIHLGQTASNRPVKITAARTLTLENIIDYARTVKGIDIIGVIDCHVPEVLEGLKHSIESGEAYELKGGGIRFPDVTLILGTEIEVYDEESLGPVHVLAYTPTWNAMMELSSWMGSRMKNPTLSSQRLYETSIVLQQKVKELGGLFIPAHAFTPFKGVYGKGVKQSMGEIFDLALIDGIELGLSADTSMADQVEELHRFPFLSNSDAHSLEKLAREYQILHLYEPSFQAFQSALRDKDKCSIVANYGLNPYLGKYYETTCAQCRTPMKGSACETCGSSKVVKGVSERLTELATASENNGKQRPPYVHQIPLEFIPKVGKRTLARLREAFGTDMDILHQATFEQLCDVIPNHIAEAIVIAREGKATIKRGGGGHYGKMIGTE", "soluble on expression in E. coli": "not soluble"}
{"sequence": "MSLEYKQASIFDNEVKKNKPLADRMRPKTLDEFVGQEHLLGKGKLLRELIEKDNITSMILWGPPGVGKTTLAMIIANMTNSKFITFSAVLSGIKEIKEIMAKAELDAMYGTRTVVFIDEIHRFNKAQQDAFLPHVEKGNIILIGATTENPSFEVNSALLSRSKVFVMKPLTEEDLLILLKRALKDEQNGFGMYKIGITDEQLKKIALFANGDARVALNTLEIAVMGAKVIEGERIVTDDILADAMQKKTLLYDKQGEEHYNLISAFHKSLRNSDWDAAVYWLARMLEAGEDPLYIARRMIRFASEDIGLADPQALEMAVAAYNACHYIGIPECSVNLAQVAIYLALAPKSNAVYMAYNKAKKDAEETIAESVPIHLRNAPTKLMKELGYGKGYKYAHDFEEKVTDMQCLPDNLKDRKYYVPTDSGFEKDIQKRLEQISNLKKKGEGHHHHHH", "soluble on expression in E. coli": "soluble"}
{"sequence": "MGIRPVNRKRLSMDKVFIEQLEVITTIGVYDWEQQIKQKLVLDLEMAHDNRAAGKSDDVADALDYAQVSQAVLEHIEQGRFLLVERVAEEVAELIMTRFAVPWLRIRLTKPGAVPQAKGVGVIIERARG", "soluble on expression in E. coli": "not soluble"}
{"sequence": "MVTVAVPKERAPGERRVALVPEVVARLVKGGARVRVERGAGEGAYHPDEAYQEAGAEVVERGELLKGAHLLFTVQPPPEDLIQALEPGAIVVGFVQPHKNLELVRALQAKKATVIAMELIPRITRAQSMDALSSQATVAGYLAAIHAARLSPRFFPMLTTAAGTIRPAKVMVMGVGVAGLMAIATAKRLGAQVFAYDVRKAALEQALSLGAKPIELPISAEGEGGYARELTEEEKRIQHEALRDHVAGMDVLITTAQVPGRRAPILLTEDMVERLKPGTVVVDLAAESGGNCVLTKPGEVVEVRGVRVYGPLNLPSELSVHASEMYAKNLYNLSSLLIEKGAFAPKWEDEIVRAALLMKEGEVLHGPTKALLGGA", "soluble on expression in E. coli": "soluble"}
{"sequence": "MKFAVVVFPGSNCDVDMYHAIADELGEEVEYVWHDEDDLDRFDAILLPGGFSYGDYLRSGAIARFSKVMAAVKKAAEAGKPVLGVCNGFQILLEAGLLPGAMRRNQGLKFICRPVQLTVENHETIFTSAYEKGEVITIPIAHGEGNYYCDEQTLERLVENRQIVFRYHGENPNGSLADIAGIVNERGNVLGMMPHPERAVDALLGSADGLKLFRSIVNYWRETHVVTA", "soluble on expression in E. coli": "not soluble"}
{"sequence": "MSLMELQGKFLIAMPHLDDYFNRTVVFMCEHNEQGSMGLVINQPTDLSIAELYSKLNFMMKNDRTFGNEMVVAGGPMHTERGFILHKNTLNAFQHTYKVTKELSMTTSADVVETLGSTFAPEKYLVALGCSSWGAGQLEKEIRDNAWLVVSSNDQILFDMPYEDRYAAANQLLGIHPYNFALAQVGHSEGGSHHHHHH", "soluble on expression in E. coli": "soluble"}
{"sequence": "MGSDKIHHHHHHMNLLPLFLAVAEEDNFRAAADRLGVTRSAVSQGIRRLEDAFGTTLVTRTTRSVRLTEAGERLREALSQPLSDIGTALDRVAGEDEPRGLLRIAVTSIAEQFLSGPLIASFAQAHPKVAIDVTVTDEEFDIVAAGFDAGVRLGEVIEQDMIAVPLTGDQRELAVAAPTYLAVRGTPAHPRELVHHRCIGWRRAPNVAPYRWEFEENGVPFDVAVEPQITTNDLRFMLRSALCGAGITFATEETFRPFVETGELVPLLQDFLPPFPGFFLYFPQRRNMTPKMRALIEHVRRWR", "soluble on expression in E. coli": "not soluble"}
{"sequence": "SLTSEMIENIQSVKAYCWEEAMEKSGGGSGGGSGGGSGGGIENSHVKKDDIWPSGGQMTVKDLTAKYTEGGNAILENISFSISPGQRVGLLGRTGSGKSTLLSAFLRLLNTEGEIQIDGVSWDSITLEQWRKAFGVIPQKVFIFSGTFRKNLDPYEQWSDQEIWKVADEVGLRSVIEQFPGKLDFVLVDGGCVLSHGHKQLMCLARSVLSKAKILLLDEPSAHLDPVTYQIIRRTLKQAFADCTVILCEARIEAMLECDQFLVIEENKVRQYDSIQKLLNERSDFRQAISPSD", "soluble on expression in E. coli": "soluble"}
{"sequence": "MSKVKRKLKNIVRNIMLSETFANTNLVKNMRKNHKEKLEEGRRVLFKEHAKDCLETIKENLDKNNLHFWLDYGTLLGAMREKDFIAHDLDIDLGMFYENQVEEVEKAFKEANIKKVREFTLDGKVVEQTYSYKGLYFDIFYYFKDENLMWTYGFTFKNNKLNKVSYKDKDVSTGFEGMKYFVKKRGLEKIMFKGKEYTVPENPDGYLRENYGPNYMTPIKEWDYVEAPTNQEKLKGGDIVMIEYYNLEHHHHHH", "soluble on expression in E. coli": "soluble"}
{"sequence": "MASSVLEMIKEEVTCPICLELLKEPVSADCNHSFCRACITLNYESNRNTDGKGNCPVCRVPYPFGNLKPNLHVANIVERLKGFKSIPEEEQKVNICAQHGEKLRLFCRKDMMVICWLCERSQEHRGHQTALIEEVDQEYKEKLQGALRKLMKKAKICDEWQDDLQLQRVDWENQIQINVENVQRQFKGLRDLLDSKENEELQKLKKEKKEVMEKLEESENELEDQTELVRDLISDVEHHLQLSTLEMLQGANCVLRRSQSLSLQQPQSVPQKRKRTFQAPDLKGMLQVYQGLMDIQQYWVHMTLHARNNAVIAINKEKRQIQYRSYNTVPVSEIYHLGVLGYPALSSGKHYWEVDISRSDAWLLGLNDGKCAQPQLHSKEEMGIKKNLHSQIKQNVLFQPKCGYWVIGMKNPSVYNAFDECSITHNSSILVISLPDCPSRVGVFLDRKAGTLSFYDVSNCGALIYRFYDPAFPVEVYPYFNPMKCSEPMTICGPPS", "soluble on expression in E. coli": "soluble"}
{"sequence": "MGSDKIHHHHHHMDVMVRPSGMPAESGQEPMADGPVAAPFMRLSSKLRDDLYEEVRHDKTWHQRLTWSRGEWTPGSLTSLASRFERSLRWNKVKPEKENFDSPRPTIQSQSICREHLTGTAPEFLSEETLRILTEAVGSAQIKEAVIDMECWERTFLNSEGCSVTTQGKWFDFYASYNTGAALVRWRDGTSTQEEVSRLARPPLPILGRGVTWSEPRTIDTVRYDLVLLSPTASSVVIHELIGHGCEHFREKIVGLRVGPEELRVVAFPKNGSGFDDEGTPSEEIVLVENGIVRHAVRDRATGGMAPFSGLTKVASHGVKPGSRCTHLKAEGESSQEGVTGVPAERTVWIEHFSAANYHSGRAFFRSGLAWVGSREELLYPLMPFTMSIDIYELASLLWHLDGQTERARSGLCNKDGEFLPTFNFAPKIALRPVVSIRP", "soluble on expression in E. coli": "not soluble"}
{"sequence": "MGSDKIHHHHHHMYLEAFTSHFNSIADSRQSAKVTYPLHDVLFVTLCGVIAGAEGWSEIHDYAAGHHTWFKEKGILTEGVPVDDTIARIISRIEPEQFRLCFANWMRAVHEMSDGHLIAIDGKTLRASYNREDRRSTIHMVNAFACANKVVLGQVKTANKSNEITAIPALLQLLDIEGALVSIDAMGCQTEIARQIVEQGGDYLLAVKVNQSSLHEAVVSAFSEARSNPLDGLVIEKNRGRIEARAYYVIPANQLQDNFPKWMKLNTLGMCLSYRHTKGKEAELTYRYYISSATLDEQLLANSVRGHWGIENSLHWVLDVSMKEDSCQIYQHHGAENWAMLRHISLNMLRAEPSKGSIPAKQKRAWMKPEYLESVLLAGLQLDEF", "soluble on expression in E. coli": "not soluble"}
{"sequence": "MGSDKIHHHHHHMKVLHVNAGLENGGGLSHIVNLLTEAKRENKDFDLLTLADGPVAAAAREHGINTYVLGAKSRYNLASLKKLIKFINDGHYDIVHTHGARANLFLSLIHKRISAVWCVTVHSNPYLDFEGRGFLGKVFTKFNLRALKKADCIFAVTKRFANLLVNQTQLDKNKVHVIYNGIFFHNDSEIPAKYEHTYFNVINVARTEKVKGQELLLKAVKKLNDQHIRLHIAGDGSQLEPLKALTRQLNMAPQVTFHGFMTHHQLSGLYKRIDLAVLTSYSESFPLVLLEATDNLIPILSTDVGDIHKMIPGPKYGFIAKTGDIDSIAKQLELAVNKTTKQLREMAYTEKRYAEEHFSVKNQLADIEKVYSTLI", "soluble on expression in E. coli": "not soluble"}
